Experimental data from the supplement of paper PMC7877785.
± gives the uncertainty stated by the source.

Test: self-splicing fitness, log relative to wild type (ln ratio); higher = more splicing; Tetrahymena group I intron in knt gene, E. coli kanamycin selection, DiMSum; sequences stand for … in CUCUCU…GGAGGGAAAAGUUAUCAGGCAUGCACCUGGUAGCUAGUCUUUAAACCAAUAGAUUGCAUCGGUUUAAAAGGCAAGACCGUCAAAUUGCGGGAAAGGGGUCAACAGCCGUUCAGUACCAAGUCUCAGGGGAAACUUUGAGAUGGCCUUGCAAAGGGUAUGGUAAUAAGCUGACGGACAUGGUCCUAACCACGCAGCCAAGUCCUAAGUCAACAGAUCUUCUGUUGAUAUGGAUGCAGUUCACAGACUAAAUGUCGGUCGGGGAAGAUGUAUUCUUCUCAUAAGAUAUAGUCGGACCUCUCCUUAAUGGGAGCUAGCGGAUGAAGUGAUGCAACACUGGAGCCGCUGGGAACUAAUUUGUAUGCGAAAGUAUAUUGAUUAGUUUUGGAGUACUCGUGGUCG
How it was run: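 Colonies from six replicate transformations of E. coli BL21(DE3) were pooled and amplicon-sequenced on an Illumina HiSeq 2500. The library placed an intron with all eight P1ex-region nucleotides randomised inside the knt kanamycin-resistance gene on pET-22b(+), and cells grew overnight at 37°C or 30°C on LB agar with or without 25 μg/mL kanamycin (plus 100 μg/mL carbenicillin, 50 μM IPTG, 0.2% rhamnose). Fitness is the DiMSum error-weighted combination of wild-type-normalised replicate fold changes, kanamycin versus none.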

Row | Sequence | self-splicing fitness (ln) (30 °C) | self-splicing fitness (ln) (37 °C)
1 | CUCAAGCAAUAUUACGCCCG | -0.954 ± 0.17 | -2.11 ± 0.21
2 | GACAAGCAAUAUUACGACCG | -0.672 ± 0.21 | -0.326 ± 0.34
3 | UUGGAGCAAUAUUACGGUCU | -3.4 ± 0.49 | -2.45 ± 0.48
4 | AAUUAGCAAUAUUACGCGGA | -1.56 ± 0.16 | -1.3 ± 0.12
5 | AGCUAGCAAUAUUACGCUUG | -3.96 ± 0.26 | -2.9 ± 0.25
6 | CGCAAGCAAUAUUACGUAGU | -3.1 ± 0.097 | -2.75 ± 0.098
7 | CGUCAGCAAUAUUACGGGAC | -3.95 ± 0.25 | -1.73 ± 0.23
8 | AUUGAGCAAUAUUACGCUCC | -1.83 ± 0.44 | –
9 | GACAAGCAAUAUUACGGUAC | -2.81 ± 0.13 | -2.64 ± 0.16
10 | AGAUAGCAAUAUUACGCAUA | -2.23 ± 0.16 | -0.55 ± 0.18
11 | GUCAAGCAAUAUUACGGGAU | -5.19 ± 0.27 | -2.96 ± 0.21
12 | GCAUAGCAAUAUUACGUUCC | – | -2.25 ± 0.31
13 | GGCAAGCAAUAUUACGUGGG | -3.42 ± 0.13 | -1.85 ± 0.1
14 | GGGCAGCAAUAUUACGACUU | 0.0195 ± 0.16 | -0.0822 ± 0.19
15 | GCUGAGCAAUAUUACGCCAC | -4.02 ± 0.27 | -2.27 ± 0.26
16 | GUCCAGCAAUAUUACGCCGG | -2.64 ± 0.17 | -2.69 ± 0.31
17 | CCCCAGCAAUAUUACGUGGG | -3.83 ± 0.12 | -2.81 ± 0.14
18 | GGCCAGCAAUAUUACGCCAG | -3.88 ± 0.37 | -1.59 ± 0.35
19 | UGCUAGCAAUAUUACGUCGC | -3.37 ± 0.2 | -2.65 ± 0.41
20 | ACCUAGCAAUAUUACGUCCU | -0.685 ± 0.067 | -0.579 ± 0.075
21 | GCUGAGCAAUAUUACGGAGA | -2.79 ± 0.43 | -1.85 ± 0.28
22 | CAAUAGCAAUAUUACGUGCC | -2.98 ± 0.26 | -3.02 ± 0.32
23 | UUCCAGCAAUAUUACGUCUA | -0.638 ± 0.082 | 0.0519 ± 0.093
24 | GGAAAGCAAUAUUACGAUUU | -0.238 ± 0.081 | 0.189 ± 0.1
25 | UCAAAGCAAUAUUACGUCAA | -2.84 ± 0.23 | -2.71 ± 0.29

Row | Sequence | self-splicing fitness (ln) (30 °C) | self-splicing fitness (ln) (37 °C)
26 | UUGCAGCAAUAUUACGGGCC | -3.8 ± 0.22 | -2.3 ± 0.17
27 | AGGAAGCAAUAUUACGUCAA | -3.36 ± 0.22 | -3.71 ± 0.27
28 | UGGCAGCAAUAUUACGCACU | -0.473 ± 0.068 | 0.399 ± 0.094
29 | CGCGAGCAAUAUUACGUGCC | -3.8 ± 0.42 | -2.96 ± 0.48
30 | CAGUAGCAAUAUUACGCCCU | – | -1.3 ± 0.32
31 | UAACAGCAAUAUUACGUGGC | -4.59 ± 0.29 | -2.56 ± 0.23
32 | GUCUAGCAAUAUUACGUCUA | -1.33 ± 0.23 | -1.22 ± 0.16
33 | AGCUAGCAAUAUUACGGUCA | -0.312 ± 0.067 | 0.192 ± 0.083
34 | GGCUAGCAAUAUUACGUGAU | -0.939 ± 0.099 | -0.509 ± 0.11
35 | UUACAGCAAUAUUACGAUAG | -0.427 ± 0.056 | 0.204 ± 0.07
36 | AAGAAGCAAUAUUACGAAGU | -2.48 ± 0.16 | -2.12 ± 0.21
37 | GAUCAGCAAUAUUACGUCAU | -1.53 ± 0.094 | -0.393 ± 0.1
38 | CCGAAGCAAUAUUACGGCUA | -2.89 ± 0.29 | -1.64 ± 0.24
39 | GCAGAGCAAUAUUACGCGGU | -4.68 ± 0.29 | -3.16 ± 0.37
40 | GAGGAGCAAUAUUACGUUAG | -4 ± 0.27 | -1.93 ± 0.27
41 | AUGCAGCAAUAUUACGACCG | -1.66 ± 0.29 | -1.07 ± 0.3
42 | GGGCAGCAAUAUUACGUAGG | -2.38 ± 0.075 | -1.32 ± 0.091
43 | CACAAGCAAUAUUACGCGUC | -2.54 ± 0.13 | -2.15 ± 0.18
44 | AAUUAGCAAUAUUACGCGAG | -1.84 ± 0.12 | -0.918 ± 0.12
45 | AACAAGCAAUAUUACGGCGU | -0.173 ± 0.063 | 0.163 ± 0.071
46 | ACAGAGCAAUAUUACGUCAG | -3.02 ± 0.13 | -2.43 ± 0.2
47 | UUCCAGCAAUAUUACGUCCU | -2.67 ± 0.21 | -2.29 ± 0.32
48 | UUAUAGCAAUAUUACGGGAG | -2.25 ± 0.25 | -1.94 ± 0.31
49 | ACGCAGCAAUAUUACGCGUA | -3.63 ± 0.23 | -2.1 ± 0.15
50 | UCAUAGCAAUAUUACGCACA | -1.21 ± 0.13 | -0.159 ± 0.11

Row | Sequence | self-splicing fitness (ln) (30 °C) | self-splicing fitness (ln) (37 °C)
51 | UACCAGCAAUAUUACGAGGC | -4.87 ± 0.26 | -2.23 ± 0.15
52 | UAGUAGCAAUAUUACGAUCU | -1.22 ± 0.11 | -0.472 ± 0.13
53 | GACAAGCAAUAUUACGGAAA | -2.13 ± 0.2 | -2 ± 0.23
54 | GGCGAGCAAUAUUACGAAUG | -3.21 ± 0.18 | -2.84 ± 0.2
55 | CCGCAGCAAUAUUACGCGUG | -2.75 ± 0.15 | -2.38 ± 0.17
56 | AAAUAGCAAUAUUACGAAUG | -1.37 ± 0.12 | -1.62 ± 0.16
57 | AACCAGCAAUAUUACGCUAU | -2.11 ± 0.094 | -0.398 ± 0.093
58 | UCCUAGCAAUAUUACGUCGA | -0.0892 ± 0.07 | 0.0864 ± 0.078
59 | CCCGAGCAAUAUUACGCCUC | – | -1.77 ± 0.34
60 | GUCUAGCAAUAUUACGGCUG | -2.04 ± 0.18 | -1.91 ± 0.21
61 | AAGCAGCAAUAUUACGAUCC | -1.73 ± 0.24 | 0.0481 ± 0.24
62 | UCUAAGCAAUAUUACGUGUU | -3.44 ± 0.14 | -2.81 ± 0.13
63 | AAAUAGCAAUAUUACGGGUU | -1.92 ± 0.14 | -0.924 ± 0.2
64 | UCAUAGCAAUAUUACGGUGG | -3.13 ± 0.15 | -2.07 ± 0.17
65 | CCAGAGCAAUAUUACGCAAA | -2.79 ± 0.48 | -1.57 ± 0.33
66 | GCCGAGCAAUAUUACGUGGG | -4.56 ± 0.42 | -2.85 ± 0.27
67 | AAAGAGCAAUAUUACGUGCU | -3.28 ± 0.22 | -2.82 ± 0.25
68 | UUCCAGCAAUAUUACGCCGU | -2.53 ± 0.16 | -1.43 ± 0.23
69 | CGCAAGCAAUAUUACGUAGC | -3.3 ± 0.17 | -1.17 ± 0.18
70 | CAAUAGCAAUAUUACGCCAA | -2.96 ± 0.22 | -2.76 ± 0.2
71 | CAGAAGCAAUAUUACGGAGG | -1.91 ± 0.099 | -1.2 ± 0.1
72 | GUCAAGCAAUAUUACGAUUC | -1.76 ± 0.17 | 0.0525 ± 0.15
73 | CAUAAGCAAUAUUACGUUAC | -3.85 ± 0.24 | -2.15 ± 0.24
74 | UCAAAGCAAUAUUACGAAUC | – | -2.76 ± 0.38
75 | GGAGAGCAAUAUUACGAACC | -2.16 ± 0.43 | –

Row | Sequence | self-splicing fitness (ln) (30 °C) | self-splicing fitness (ln) (37 °C)
76 | UGUCAGCAAUAUUACGGAAG | -2.37 ± 0.14 | -0.569 ± 0.15
77 | UAGUAGCAAUAUUACGUAAG | -4.17 ± 0.46 | -1.11 ± 0.23
78 | GUUCAGCAAUAUUACGCUAC | -3.75 ± 0.29 | -2.67 ± 0.26
79 | GGUCAGCAAUAUUACGUUUG | -2.61 ± 0.11 | -2.38 ± 0.15
80 | CAAUAGCAAUAUUACGAUUA | -1.2 ± 0.12 | -0.352 ± 0.11
81 | CGCUAGCAAUAUUACGCCGA | -0.916 ± 0.21 | -0.258 ± 0.15
82 | CUGAAGCAAUAUUACGAGAG | -1.32 ± 0.088 | -1.18 ± 0.11
83 | UCUUAGCAAUAUUACGCUAG | -2.15 ± 0.19 | -2.47 ± 0.28
84 | CAUUAGCAAUAUUACGUCAA | -2.38 ± 0.23 | -2.96 ± 0.4
85 | CCGAAGCAAUAUUACGACGU | -1.03 ± 0.08 | 0.0423 ± 0.092
86 | GUAGAGCAAUAUUACGCGCG | -0.605 ± 0.07 | -0.12 ± 0.094
87 | UUCUAGCAAUAUUACGCGGA | -3.93 ± 0.3 | -3.75 ± 0.33
88 | GCGUAGCAAUAUUACGGGAU | -1.51 ± 0.14 | -1.38 ± 0.21
89 | AUGAAGCAAUAUUACGAAGU | -1.21 ± 0.1 | -0.533 ± 0.12
90 | GUGCAGCAAUAUUACGCCAU | -2.23 ± 0.16 | -2.62 ± 0.23
91 | CGCAAGCAAUAUUACGUCGU | -3.27 ± 0.13 | -2.2 ± 0.1
92 | GAGAAGCAAUAUUACGUCCA | -0.235 ± 0.12 | 0.335 ± 0.14
93 | UCAGAGCAAUAUUACGUAAC | -2.5 ± 0.26 | –
94 | CCUUAGCAAUAUUACGAGCC | -3.38 ± 0.34 | –
95 | UAAGAGCAAUAUUACGAAUU | -3.74 ± 0.43 | -1.84 ± 0.49
96 | GCUGAGCAAUAUUACGUUCA | -3.45 ± 0.28 | -1.81 ± 0.2
97 | UCGAAGCAAUAUUACGACUG | -1.11 ± 0.095 | -0.774 ± 0.13
98 | UGUAAGCAAUAUUACGCGGC | – | -1.13 ± 0.27
